Assay results from patent US20040014649A1 (RIGEL PHARMACEUTICALS, published 2004).

Legend:
[1] = molecular target: T1, human B-cell associated protein-37 (human BAP-37) (human, UniProt O35129 1-299 (mouse entry), limits assumed); experiment: cell-based or functional assay
[2] = molecular target: T1, human B-cell associated protein-37 …; experiment: cell-based or functional assay; remark: listed apart in the source

T1 sequence (O35129 whole entry): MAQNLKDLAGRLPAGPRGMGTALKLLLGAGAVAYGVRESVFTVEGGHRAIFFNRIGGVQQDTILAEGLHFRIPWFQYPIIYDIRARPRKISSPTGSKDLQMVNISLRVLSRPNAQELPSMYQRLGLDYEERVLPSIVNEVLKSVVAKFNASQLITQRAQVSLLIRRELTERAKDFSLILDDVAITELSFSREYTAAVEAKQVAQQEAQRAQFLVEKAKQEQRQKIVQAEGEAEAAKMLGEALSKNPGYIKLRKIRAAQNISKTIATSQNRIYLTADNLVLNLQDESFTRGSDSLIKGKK

B1: peptide CL08wt (peptide)
peptide: TGVHVELQINRSIMHYISSP
[1]
  endogenous epsilon inhibition ratio (TAQMAN quantitative PCR, +IL-4/+Dox to +IL-4/-Dox): 2.15
[2]
  Reporter Ratio (A5T4 reporter line, IL-4 induced germline epsilon transcription): 1.39

B2: peptide CL08NR (peptide)
peptide: TGVHVELQIAASIMHYISSP
[2]
  Reporter Ratio (A5T4 reporter line, IL-4 induced germline epsilon transcription): 1.6

B3: peptide CL08VH (peptide)
peptide: TGAAVELQINRSIMHYISSP
[2]
  Reporter Ratio (A5T4 reporter line, IL-4 induced germline epsilon transcription): 1.17
